Test results reported in patent US20150037339A1 (Regeneron, published 2015).

Tests used:
Activin AB [1] = target: T1, Activin AB (human, UniProt P08476 311-426; P09529 293-407); assay: SPR (Biacore), mAb captured on anti-Fc, Activin AB injected, 37 C
T1 construct: Heterodimer of one betaA and one betaB subunit; bought (R&D Systems #1006-AB-005 / #1066-AB)
T1 chain 1: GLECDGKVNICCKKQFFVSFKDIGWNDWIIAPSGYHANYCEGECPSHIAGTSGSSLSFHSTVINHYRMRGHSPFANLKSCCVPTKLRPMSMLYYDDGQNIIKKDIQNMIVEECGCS
T1 chain 2: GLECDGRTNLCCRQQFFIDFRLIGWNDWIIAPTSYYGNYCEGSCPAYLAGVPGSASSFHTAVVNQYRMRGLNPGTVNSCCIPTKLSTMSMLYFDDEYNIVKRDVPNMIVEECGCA
Outline: (§1)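 Association was monitored for 240 s and dissociation in buffer for 600 s. Rate constants came from kinetic fitting; KD was calculated as kd/ka and dissociative half-life as ln2/(60*kd), in minutes.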

Activin AB [2] = target: T1, Activin AB; assay: SPR (Biacore 4000), captured on anti-human Fc, 200 nM ligand injected, 37 C
Method: (§2) For the binding experiment, a Biacore 4000 instrument was used. […] All Biacore binding studies were performed in HBS-T running buffer (0.01 M HEPES pH 7.4, 0.5 M NaCl, 3 mM EDTA, 0.5 mg/ml bovine serum albumin, 0.05% v/v Surfactant P20). […] All binding measurements were performed at 37° C. […] Over the captured antibody surface was injected the TGF-beta family ligands through concentrations ranging from 3.1 nM to 200 nM.

GDF11 = target: T2, GDF11 (human, UniProt O95390 299-407); assay: as above
T2 construct: Bought protein; also called hGDF11
Method: as §2

Activin B [3] = target: T3, Activin B (human, UniProt P09529 293-407); assay: as above
T3 construct: Homodimer of two betaB subunits; bought (R&D Systems #659-AB)
T3 chain: T1 chain 2
Method: as §2

hBMP4 = target: T4, hBMP4 (human, UniProt P12644 293-408); assay: as above
T4 construct: Bought protein
T4 sequence (looked up): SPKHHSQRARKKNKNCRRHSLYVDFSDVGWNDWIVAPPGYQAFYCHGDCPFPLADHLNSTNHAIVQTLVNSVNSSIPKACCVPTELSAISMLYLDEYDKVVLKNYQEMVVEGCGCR
Method: as §2

Activin A [4] = target: T5, Activin A (human, UniProt P08476 311-426); assay: as above
T5 construct: Homodimer of two betaA subunits; bought (R&D Systems #338-AC); also called inhibin-betaA dimer
T5 sequence: T1 chain 1
Method: as §2

hBMP6 = target: T6, hBMP6 (human, UniProt P22004 382-513, limits assumed); assay: as above
T6 construct: Bought protein
T6 sequence (looked up): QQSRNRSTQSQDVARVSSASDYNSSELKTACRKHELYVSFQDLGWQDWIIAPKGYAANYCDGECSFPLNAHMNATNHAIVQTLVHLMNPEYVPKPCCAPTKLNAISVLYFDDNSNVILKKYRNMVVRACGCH
Method: as §2

GDF8 = target: T7, GDF8 (human, UniProt O14793 267-375); assay: as above
T7 construct: Bought (R&D Systems #788-G8); also called hGDF8; growth and differentiation factor-8
Method: as §2

hBMP9 = target: T8, hBMP9 (human, UniProt Q9UK05 320-429); assay: as above
T8 construct: Bought protein
T8 sequence (looked up): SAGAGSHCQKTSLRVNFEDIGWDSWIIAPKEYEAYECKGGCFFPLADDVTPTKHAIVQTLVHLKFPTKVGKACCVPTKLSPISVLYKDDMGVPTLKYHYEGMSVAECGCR
Method: as §2

Activin AC [5] = target: T9, Activin AC (human, UniProt P55103 237-352); assay: as above
T9 construct: Heterodimer of one betaA and one betaC subunit; bought (R&D Systems #4879-AC)
T9 sequence 1: T1 chain 1
T9 sequence 2: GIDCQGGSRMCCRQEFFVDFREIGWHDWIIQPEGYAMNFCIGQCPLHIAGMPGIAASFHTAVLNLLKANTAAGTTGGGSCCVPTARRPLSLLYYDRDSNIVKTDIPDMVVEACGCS
Method: as §2

hBMP2 = target: T10, hBMP2 (human, UniProt P12643 283-396); assay: as above
T10 construct: Bought protein; also called BPM2
Method: as §2

Activin AB [6] = target: T1, Activin AB; assay: cell-based or functional assay
Activin B [7] = target: T3, Activin B; assay: cell-based or functional assay
Activin A [8] = target: T5, Activin A; assay: cell-based or functional assay
Activin AC [9] = target: T9, Activin AC; assay: cell-based or functional assay
Activin AC [10] = target: T9, Activin AC; assay: SPR (Biacore), mAb captured on anti-Fc, Activin AC injected, 37 C
Outline: as §1

Activin AB [11] = target: T1, Activin AB; assay: SPR (Biacore), mAb captured on anti-Fc, Activin AB injected, 25 C
Outline: as §1

Activin AC [12] = target: T9, Activin AC; assay: SPR (Biacore), mAb captured on anti-Fc, Activin AC injected, 25 C
Outline: as §1

T2 sequence (O95390 299-407 limits assumed): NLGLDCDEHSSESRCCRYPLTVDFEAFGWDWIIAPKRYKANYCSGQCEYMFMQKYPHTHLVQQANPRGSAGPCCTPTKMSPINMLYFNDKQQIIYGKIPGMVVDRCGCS
T10 sequence (P12643 283-396 limits assumed): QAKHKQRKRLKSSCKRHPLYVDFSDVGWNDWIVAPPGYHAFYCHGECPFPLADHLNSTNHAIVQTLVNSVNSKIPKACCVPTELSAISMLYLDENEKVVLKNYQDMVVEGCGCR

B1: H4H10436P2 (antibody, human IgG4, V domains shown)
VH: QVQLVESGGGVVQPGRSLRLTCVASGFTVSSYGMHWVRQAPGKGLEWVAVMFYDESKKYYADSVKGRFTISRDNSKNTLYLQMNSLRVEDTAVYYCARDEQLDFEYWGQGTLVTVSS
VL: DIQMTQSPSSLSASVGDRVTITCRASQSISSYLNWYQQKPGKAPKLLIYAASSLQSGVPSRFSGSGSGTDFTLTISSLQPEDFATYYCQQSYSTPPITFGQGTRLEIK
50 nM Ag Bound (RU) (Activin AB [1]): 33.9 RU | Kd (Activin AB [1]): 0.0443 nM | koff (Activin AB [1]): 0.000458 s⁻¹ | kon (Activin AB [1]): 1.03e+07 M⁻¹ s⁻¹ | t1/2 (Activin AB [1]): 25.2 min | binding response (resonance units) for 200 nM ligand (Activin AB [2]): 54.3 RU | binding response (resonance units) for 200 nM ligand (GDF11): 0 RU | binding response (resonance units) for 200 nM ligand (Activin B [3]): 60.1 RU | binding response (resonance units) for 200 nM ligand (hBMP4): 19.3 RU | binding response (resonance units) for 200 nM ligand (Activin A [4]): 56.5 RU | binding response (resonance units) for 200 nM ligand (hBMP6): 4 RU | binding response (resonance units) for 200 nM ligand (GDF8): -0.5 RU | binding response (resonance units) for 200 nM ligand (hBMP9): 11.7 RU | binding response (resonance units) for 200 nM ligand (Activin AC [5]): 55.6 RU | binding response (resonance units) for 200 nM ligand (hBMP2): 14.9 RU | IC50 [M], inhibition of 30 pM Activin AB in A204/CAGAx12-Luc Smad2/3-luciferase bioassay (Activin AB [6]): 1.4e-10 M | IC50 [M], inhibition of 50 pM Activin B in A204/CAGAx12-Luc Smad2/3-luciferase bioassay (Activin B [7]): 1.3e-10 M | IC50 [M], inhibition of 100 pM Activin A in A204/CAGAx12-Luc Smad2/3-luciferase bioassay (Activin A [8]): 2e-10 M | IC50 [M], inhibition of 4 nM Activin AC in A204/CAGAx12-Luc Smad2/3-luciferase bioassay (Activin AC [9]): 1.3e-09 M | 50 nM Ag Bound (RU) (Activin AC [10]): 32.6 RU | Kd (Activin AC [10]): 3.75 nM | koff (Activin AC [10]): 0.00331 s⁻¹ | kon (Activin AC [10]): 881000 M⁻¹ s⁻¹ | t1/2 (Activin AC [10]): 3.5 min | 50 nM Ag Bound (RU) (Activin AB [11]): 28.2 RU | Kd (Activin AB [11]): 0.0341 nM | koff (Activin AB [11]): 0.000261 s⁻¹ | kon (Activin AB [11]): 7.66e+06 M⁻¹ s⁻¹ | t1/2 (Activin AB [11]): 44.2 min | 50 nM Ag Bound (RU) (Activin AC [12]): 30.1 RU | Kd (Activin AC [12]): 2.24 nM | koff (Activin AC [12]): 0.00156 s⁻¹ | kon (Activin AC [12]): 698000 M⁻¹ s⁻¹ | t1/2 (Activin AC [12]): 7.4 min
